The test system of experiment [1] is human astrocytoma and glioblastoma tissues. Briefly: IHC in human brain cancer cohort (astrocytoma grade 1-3, glioblastoma grade 4, NAT). Further details: key to IHC staining grade: stained negative (0); positive cytoplasmic staining (1+); moderately positive cytoplasmic staining (2+). From the text: FIG. 17. Human glioblastoma tissues were studied with the US28-13-5G6-1D3 rAb and MAB810R antibodies by using IHC and with ISH analysis for HCMV DNA. […] The staining was present in several cells in each positive sample which was different from the breast cancer samples. However, the staining of the glia cells was weaker than for the US28-13-5G6-1D3 rAb. C. The brain tissue NAT is negative for 13-5G6-1D3 staining. […] The arrows indicate these signals. E. The staining of the same Gliobastoma grade IV sample is negative for the IgG antibody. F. The ISH analysis is negative for the same brain tissue NAT sample. The positive glia cells are indicated with arrows in the non-colour version of these figures. A colour version of FIG. 17 is provided on the page after the non-colour version.
FIG. 18. US28-13-5G6-1D3 staining of the human brain cancer cohort containing human astrocytoma grade 1-3 and glioblastoma grade 4 and NAT tissues. All the astrocytoma grade 1 (n=4) stained negative (0). Of the grade 2-3 astrocytomas, 6 stained negative (0), 37 had positive cytoplasmic staining (1+), and 2 had moderately positive cytoplasmic staining (2+). […] The ISH analysis confirmed presence of nuclear HCMV DNA in tumor cells of all tumor samples. Only 3 of 10 NAT samples were HCMV DNA positive.

Experiment [2] has as its system control CHO cells (US28 negative). Briefly: FACS binding to US28 negative control CHO cells. Also noted: species or system Chinese hamster. The method, then: Flowcytometry was used to analyze cell surface binding by the US28 antibodies. Upon cell harvest, adherent non-infected and US28 overexpressing or HCMV infected cells were washed three times with cell staining buffer (phosphate-buffered saline (PBS (Amresco, Cleveland, 44139, USA) added 0.5% BSA and 0.05% Sodium Azide (NaN3)). The cells were trypisinized and then resuspended in DMEM with 10% FBS to inhibit the action of trypsin. The cells were then pelleted at 400×g for 10 minutes and washed three times in cell staining buffer. Cell viability and cell concentration were measured by tryphan blue viability assay and a cell counter (Countess, Invitrogen, Carlsbad, CA 92008, USA). The cell suspension was adjusted to 1×10^6 cells/mL with ice-cold cell staining buffer. The cells were blocked in 1 ml 10% FBS or 1% BSA in PBS per 1×10^6 cells, vortexed briefly, and incubated for 10-30 minutes to eliminate non-specific staining. The cells were then stained with the respective antibodies and appropriate negative controls.
In both cases (ECD1 and ECD3), the antibodies were added to the cells, vortexed and incubated on ice for 15 to 30 minutes up to overnight and washed twice with cell staining buffer to remove any unbound antibodies. In addition, the CMV Immediate Early Antigen (IE) Alexa488 Ab, MAB810X, 1:50 was included to verify HCMV infected cells in one of the experiments. Because it binds to an intracellular, HCMV encoded protein, it was added after permeabilizing the cells in 70% ethanol for 30 min on ice.
1:500-1:5000 in cell staining buffer of the appropriate fluorescent-conjugated appropriate secondary antibodies were added and incubated on ice for 15-20 min in the dark. The cells were washed three times to remove any unbound antibodies. The cells were then fixed with 0.5% paraformaldehyde (PFA) for 30 min on ice and resuspended in 200-500 μL cell staining buffer for final flow cytometric analysis using an Accuri C6 flow cytometry system (BD Biosciences, San Jose, CA 95131, USA). Data analyses were performed using FlowJo software v8.8 (Treestar Inc. Ashland, OR 97520, USA).
Background levels were determined using the respective secondary antibodies (anti-mFc-FITC for the subclones, or anti-myc-PE for the VUN100 molecules) with CHO cells and CHO-US28 cells. Given that US28 is expressed on the cell surface, the cells were non-permeabilised for these experiments.
On the technique in general: Flow cytometry measures light scatter and fluorescence of single cells or particles in a stream.

B1: US28-13-5G6-1D3: monoclonal antibody against ECD3 of HCMV US28; VH SEQ ID NO: 12, VL SEQ ID NO: 18; rAb is the recombinant product (antibody, V domains shown)
VH: EVKLVESGGGLVQPGGSLRLACATSGFTFTDYYMSWVRQPPGKALEWLGFIRSKANGYTTEYSASVKGRFTISRDNSQSILYLQMNTLRSEDSATYYCARDERRTAWLAYWGQGTLVTVSA
VL: DVLMTQTPLSLPVSLGDQASISCRSSQSIVHSNGNTYLDWYLQKPGQSPKLLIYKVSNRFSGVPDRFSGSGSGTDFTLKISRVEAEDLGVYYCFQGSHVPTWTFGGGTKLEIK
modifications: Mature form of VH sequence of 1D3, without the leader sequence; Mature form of VL sequence of 1D3, without the leader sequence
notes: monoclonal antibody against ECD3 of HCMV US28; rAb is the recombinant product
As for B1, in experiment [1] (all astrocytoma grade 1 (n=4)), the IHC staining grade came out at 0. In experiment [1] (grade 2-3 astrocytomas), the “number of tumors stained negative (0)” value worked out at 6, the “number of tumors with moderately positive cytoplasmic staining (2+)” value is given as 2 and the “number of tumors with positive cytoplasmic staining (1+)” value is 37.

B2: 13-5G6-1D3: mouse monoclonal IgG1 kappa antibody against US28 ECD3; VH SEQ ID NO: 12, VL SEQ ID NO: 18 (antibody, V domains shown)
VH: EVKLVESGGGLVQPGGSLRLACATSGFTFTDYYMSWVRQPPGKALEWLGFIRSKANGYTTEYSASVKGRFTISRDNSQSILYLQMNTLRSEDSATYYCARDERRTAWLAYWGQGTLVTVSA
VL: DVLMTQTPLSLPVSLGDQASISCRSSQSIVHSNGNTYLDWYLQKPGQSPKLLIYKVSNRFSGVPDRFSGSGSGTDFTLKISRVEAEDLGVYYCFQGSHVPTWTFGGGTKLEIK
modifications: Mature form of VH sequence of 1D3, without the leader sequence; Mature form of VL sequence of 1D3, without the leader sequence
Consider B2, for which the “IHC staining of brain tissue NAT” value in experiment [1] is given as “negative”. In addition, in experiment [2] (FIG. 21A), the “background binding, % of CHO negative control population” value is on record as 0.88%.

B3: 7B1F3: mouse IgG1 kappa antibody against US28 ECD1 Peptide-N; VH SEQ ID NO: 211, VL SEQ ID NO: 213 (antibody, V domains shown)
VH: EVQLQQSGAELAKPGASVKMSCKASGYTFTNYWMHWVKQRPGQGLEWIGYVNPRTGYTEYNQKFKDKATLTADKSSRTAYMQLSSLTSEDSAVYSCARILNGTGFAYWGQGTLVTVSA
VL: DIVLTQSPSSLTVSVGEKFTMSCKSSQSLLYSSNQKNYLAWYQQKPGQSPKLLIYWASTRESGVPDRFTGSGSGTDFTLAISSVKPEDLAIYYCQQYYSFPLTFGAGTKLEIK
modifications: Mature form of VH sequence of 7B1F3, without the leader sequence; Mature form of VL sequence of 7B1F3, without the leader sequence
As to B3, the “Percentage of binding to CHO cells” value in experiment [2] (Table 7B, (1:5), secondary antibody background removed) is given as 0.67%.

B4: 13-5G6-1D3 rAb: recombinant antibody product of US28-13-5G6-1D3 produced in HEK293-F cells (antibody)
heavy: EVKLVESGGGLVQPGGSLRLACATSGFTFTDYYMSWVRQPPGKALEWLGFIRSKANGYTTEYSASVKGRFTISRDNSQSILYLQMNTLRSEDSATYYCARDERRTAWLAYWGQGTLVTVSAAKTTPPSVYPLAPGSAAQTNSMVTLGCLVKGYFPEPVTVTWNSGSLSSGVHTFPAVLQSDLYTLSSSVTVPSSTWPSETVTCNVAHPASSTKVDKKIVPRDCGCKPCICTVPEVSSVFIFPPKPKDVLTITLTPKVTCVVVDISKDDPEVQFSWFVDDVEVHTAQTQPREEQFNSTFRSVSELPIMHQDWLNGKEFKCRVNSAAFPAPIEKTISKTKGRPKAPQVYTIPPPKEQMAKDKVSLTCMITDFFPEDITVEWQWNGQPAENYKNTQPIMDTDGSYFIYSKLNVQKSNWEAGNTFTCSVLHEGLHNHHTEKSLSHSPGK
light: DVLMTQTPLSLPVSLGDQASISCRSSQSIVHSNGNTYLDWYLQKPGQSPKLLIYKVSNRFSGVPDRFSGSGSGTDFTLKISRVEAEDLGVYYCFQGSHVPTWTFGGGTKLEIKRADAAPTVSIFPPSSEQLTSGGASVVCFLNNFYPKDINVKWKIDGSERQNGVLNSWTDQDSKDSTYSMSSTLTLTKDEYERHNSYTCEATHKTSTSPIVKSFNRNEC
As to B4, the “control CHO cells bound” value in experiment [2] (1:10 dilution (w/v), blank and secondary Ab controls removed, FIG. 7) is on record as 0.77%.

Source of the values: patent US20250296984A1, “THERAPEUTIC AND DIAGNOSTIC AGENTS AND USES THEREOF” (priority 2022, published 2025).
